{"source": "paper PMC6773797", "about": "“Identification and molecular characterization of a psychrophilic GH1 β-glucosidase from the subtropical soil microorganism Exiguobacterium sp. GXG2” (AMB Express, 2019)", "proteins": {"B1": {"name": "BglG (Exiguobacterium sp. GXG2) (protein)", "chain": "MKMPKDFLFGAASASYQVEGAWNVDGKGVSNWDVFSKIPGKTFEATNGDVAIDHYHRYKEDIGLMAEMGLESYRFSISWPRIFPNGTGEVNEKGLEFYNNVIDECLKHGIVPFVTLYHWDLPQVLEEQGGWRSPETADAFVRFAKTCFEAFGDRVRNWITFNETVIFCSLGYLTGAHPPGITGDAKAYFQTTHNVFVAHARAVEAFKEAGYEGEIGITHVFNPAFSIDEAPENKQAEVHANEYATHWFYDPILKGEYPAYVVKDLEKQGLLPEWTEEELDLLKRTAPLNDFIGLNYYCPQRVMKNDSALVMAGGRENSTGRPGNPSFDGVYKTVLMDDKVYTKWGWEIAPDAFLEGMRMLQARYGDIKIYITENGLGDEDPIVGEEIMDTPRIEYIESHLRAVKRAVEEGINVSGYYAWSVIDLLSWLNGYKKQYGFIYVDHANGLARKKKQSFHWYQEIIATRAAEL", "notes": "six-histidine tag kept, about 58 kDa on SDS-PAGE; pETBlue-2, E. coli Tuner(DE3)pLacI; Ni-NTA purified"}}, "substrate": "O=[N+]([O-])c1ccc(O[C@@H]2O[C@H](CO)[C@@H](O)[C@H](O)[C@H]2O)cc1", "test": "purified protein", "type": "biochemical, Exiguobacterium sp. GXG2", "conditions": "pH 7.0, 35 °C, 1–10 mM substrate"}
{"protein": "B1", "values": [{"measurement": "Km", "result": 1100, "unit": "µM"}, {"measurement": "kcat", "result": 12.7, "unit": "s⁻¹"}]}
